Assay [1] has as its target T1, human ALPPL2 on tumor cells (M28, SKOV3, AsPC1) (human, UniProt P10696 20-503).
T1 construct: whole, on cells; also called ALPPL2 expressing tumor cells; M28 cells
The experiment in a line: apparent KD, flow cytometry on living SKOV3 cells. As to the method: FIG. 16. Binding of the SYLY-based bispecific (DSDbody) to living SKOV3 cells. SKOV3 cells were incubated with Fabs for 1 h at RT and binding was analyzed by flow cytometry. […] There is no binding by the control bispecific YSC10×CD3 DSDbody that is built on a non-binding isotype control antibody YSC10.
In addition to mesothelioma cells, binding of the SYLY-based bispecific ALPPL2×CD3 DSDbody was also studied on the ovarian cancer cell line SKOV3. […] No binding was detected by the control bispecific YSC10×CD3 that is built on a non-binding isotype control antibody YSC10. For comparison, a reference DSDbody constructed from the parental FYIA was also studied on SKOV3 cells using flow cytometry.

For assay [2], the target named is T1, human ALPPL2 on tumor cells (M28, …). Nature of the assay: cell-based or functional assay.
The next assay concerns the target ALPP on HEK293 cells (UniProt P05187 23-506, limits assumed). The experiment in a line: cell-based or functional assay.
Assay [3] concerns the target T2, human CD3 epsilon (human, UniProt P07766 23-126). The experiment in a line: BLI; tips loaded with human CD3 epsilon, association with 100 nM SYLYxCD3 DSDbody, then dissociation. As to the method: (§1) FIG. 13. Binding of SYLY×CD3 DSDbody to human and cynomolgus monkey CD3 epsilon measured by biolayer interferometry. Tips were loaded with either human or cynomolgus monkey CD3 epsilon, followed by an association step with 100 nM SYLY×CD3 DSDbody and then a dissociation step.
(§2) The DSDbody was also evaluated by biolayer interferometry for cross-species binding to both human and cynomolgus monkey CD3 epsilon chains.
A general note: Biolayer interferometry detects binding as a change in optical thickness at a sensor tip.

Another assay addresses T3, human ALPI-Fc (human, UniProt P09923 20-503).
T3 construct: not shown: Fc part not described
T3 sequence (looked up): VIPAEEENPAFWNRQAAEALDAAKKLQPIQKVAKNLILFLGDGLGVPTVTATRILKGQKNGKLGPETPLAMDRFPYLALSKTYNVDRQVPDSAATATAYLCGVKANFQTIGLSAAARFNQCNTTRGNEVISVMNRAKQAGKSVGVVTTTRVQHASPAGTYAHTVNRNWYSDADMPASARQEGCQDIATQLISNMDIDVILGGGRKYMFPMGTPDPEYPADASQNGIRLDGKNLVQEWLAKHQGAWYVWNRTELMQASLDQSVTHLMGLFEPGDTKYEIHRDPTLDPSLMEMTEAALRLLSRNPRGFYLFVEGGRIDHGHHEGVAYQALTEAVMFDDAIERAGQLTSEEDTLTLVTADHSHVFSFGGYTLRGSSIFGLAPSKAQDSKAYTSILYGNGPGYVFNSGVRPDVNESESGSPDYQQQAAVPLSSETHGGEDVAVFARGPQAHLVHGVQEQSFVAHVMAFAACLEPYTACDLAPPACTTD
Nature of the assay: BLI; tips loaded with human ALPI-Fc, association with 100 nM SYLYxCD3 DSDbody, then dissociation. As to the method: (§3) FIG. 12. Binding of SYLY×CD3 DSDbody to human ALPP2 and ALPI measured by biolayer interferometry. Tips were loaded with either human ALPPL2-Fc or human ALPI-Fc, followed by an association step with 100 nM SYLY×CD3 DSDbody and then a dissociation step. Calculated affinites are shown in the graph. ND: not determined.
as §2

The target in assay [4] is T4, cynomolgus monkey CD3 epsilon (cynomolgus monkey, UniProt Q95LI5 22-117).
T4 sequence (looked up): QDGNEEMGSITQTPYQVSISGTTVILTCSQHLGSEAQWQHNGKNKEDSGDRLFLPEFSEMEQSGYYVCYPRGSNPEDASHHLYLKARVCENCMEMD
Nature of the assay: BLI; tips loaded with cynomolgus monkey CD3 epsilon, association with 100 nM SYLYxCD3 DSDbody, then dissociation. The method, then:
as §1, §2

In assay [5] the target is T2, human CD3 epsilon. The experiment in a line: biolayer interferometry, tips loaded with human CD3 epsilon, 100 nM DSDbody as analyte. As to the method:
as §1, §2

Assay [6] addresses T1, human ALPPL2 on tumor cells (M28, …). Nature of the assay: apparent KD, flow cytometry on living M28 cells; M28 mesothelioma cells, flow cytometry.
Assay [7] has as its target T5, human ALPPL2-Fc (human, UniProt P10696 20-503).
T5 construct: also called ALPG; not shown: Fc part not described
The experiment in a line: biolayer interferometry, tips loaded with human ALPPL2-Fc, 100 nM DSDbody as analyte. As to the method:
as §3, §2

Assay [8] has as its target T1, human ALPPL2 on tumor cells (M28, …). Nature of the assay: flow cytometry on AsPC1 cells, anti-hexahistidine detection, curve fit of MFI; AsPC1 pancreatic cancer cells, flow cytometry. As to the method:
The bispecific (ALPPL2×CD3) SYLY DSDBody was incubated with AsPC1 cells at room temperature for 1 h, washed and further incubated with anti-tag (hexahistidine (SEQ ID NO: 102)) antibodies for detection by flow cytometry. […] See, FIG. 24.
Background: A flow cytometer gives signals particle by particle.

In assay [9] the target is T5, human ALPPL2-Fc. The experiment in a line: BLI; tips loaded with human ALPPL2-Fc, association with 100 nM SYLYxCD3 DSDbody, then dissociation. As to the method: as §3, §2
In assay [10] the target is human ALPPL2 on tumor cells (M28, SKOV3, AsPC1) (human) (UniProt P10696). Nature of the assay: apparent KD, flow cytometry, Fab on living M28 cells.
Sequence of human ALPPL2 on tumor cells (M28, SKOV3, AsPC1) (human) (P10696 20-503): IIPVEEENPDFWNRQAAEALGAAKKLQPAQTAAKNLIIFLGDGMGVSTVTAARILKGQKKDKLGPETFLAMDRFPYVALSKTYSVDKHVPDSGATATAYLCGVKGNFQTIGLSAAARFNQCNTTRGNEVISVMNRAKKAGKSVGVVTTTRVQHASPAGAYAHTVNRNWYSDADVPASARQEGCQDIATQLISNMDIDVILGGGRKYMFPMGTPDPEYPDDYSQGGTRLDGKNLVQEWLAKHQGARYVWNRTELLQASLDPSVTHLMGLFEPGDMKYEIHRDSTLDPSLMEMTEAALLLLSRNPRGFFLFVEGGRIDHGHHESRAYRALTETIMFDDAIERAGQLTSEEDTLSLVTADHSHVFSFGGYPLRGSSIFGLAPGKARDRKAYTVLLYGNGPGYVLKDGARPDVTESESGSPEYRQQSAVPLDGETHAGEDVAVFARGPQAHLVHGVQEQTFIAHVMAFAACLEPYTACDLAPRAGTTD
Assay [11] has as its target T1, human ALPPL2 on tumor cells (M28, …). The assay is described as above. As to the method: (§4) FIG. 2. Binding of FYIA, FYIA_germ, and FYIA_germopt Fabs to living M28 cells. M28 cells were incubated with Fabs for 1 h at RT and binding was analyzed by flow cytometry.
FIG. 4. Additional Fabs (FYIA_germ_SY and FYIA_germ_6-6) were also studied along with FYIA, FYIA_germ, and FYIA_germopt Fabs for binding to living M28 cells. M28 cells were incubated with Fabs for 1 h at RT and binding was analyzed by flow cytometry.

In assay [12] the target is T5, human ALPPL2-Fc. Nature of the assay: biolayer interferometry, tips loaded with Fab, 5 nM human ALPPL2-Fc as analyte. The method, then:
FIG. 1. Biolayer interferometry (BLI) measurements of the affinity of FYIA, FYIA_germ, FYIA_germ_6-6, and FYIA_germopt (aka SYLY) Fabs for human ALPPL2. Tips were loaded with Fabs, followed by an association step with 5 nM human ALPPL2-Fc then a dissociation step.

Assay [13] has as its target T6, human ALPI on HEK293 cells (human, UniProt P09923 20-503).
T6 construct: whole, on cells; also called HEK293-ALPI cells
T6 sequence (looked up): T3 sequence (looked up)
Nature of the assay: flow cytometry on HEK293 cells stably transfected with human ALPI, 1 h at RT. The method, then:
FIG. 3. Binding of FYIA, FYIA_germ, and FYIA_germopt Fabs to HEK293 cells stably transfected with human ALPI. HEK293-ALPI cells were incubated with Fabs for 1 h at RT and binding was analyzed by flow cytometry. No detectable binding was found. An ALPI-binding Fab, M25AD, was included in the study as a positive control.

Assay [14] concerns the target T1, human ALPPL2 on tumor cells (M28, …). The experiment in a line: cell binding study, monovalent Fab on M28 cells, flow cytometry. The method, then: as §4

Where a chain is given by its changes, count along the chain named. Bounds are passed on as bounds.

Here are results for 4 molecules from US20250145733A1 (University of California, published 2025).

T5 sequence (P10696 20-503): as above
T1 sequence (P10696 20-503): as above
T2 sequence (P07766 23-126 limits assumed): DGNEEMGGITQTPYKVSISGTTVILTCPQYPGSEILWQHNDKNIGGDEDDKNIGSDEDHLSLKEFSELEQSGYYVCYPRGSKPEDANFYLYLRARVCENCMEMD
Sequence of ALPP on HEK293 cells (P05187 23-506 limits assumed): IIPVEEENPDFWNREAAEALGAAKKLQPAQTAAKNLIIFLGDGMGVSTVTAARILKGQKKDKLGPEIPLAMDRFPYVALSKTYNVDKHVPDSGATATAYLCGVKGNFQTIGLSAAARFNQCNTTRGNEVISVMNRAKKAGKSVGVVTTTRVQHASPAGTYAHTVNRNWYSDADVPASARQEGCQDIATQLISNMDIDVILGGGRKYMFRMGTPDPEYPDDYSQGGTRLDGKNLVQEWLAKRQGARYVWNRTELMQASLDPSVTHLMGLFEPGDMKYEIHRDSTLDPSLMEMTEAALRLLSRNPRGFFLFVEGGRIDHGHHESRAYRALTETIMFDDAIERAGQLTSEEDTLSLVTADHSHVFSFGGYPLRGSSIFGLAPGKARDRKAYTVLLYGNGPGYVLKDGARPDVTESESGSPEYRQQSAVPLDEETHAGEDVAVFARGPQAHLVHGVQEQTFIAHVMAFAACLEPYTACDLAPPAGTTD

B1: SYLY-based bispecific ALPPL2×CD3 DSDbody (bispecific antibody)
chain 1: EVQLVESGGGLVQPGGSLRLSCAASGFTFNTYAMNWVRQAPGKGLEWVGRIRSKYNNYATYYADSVKDRFTISRDDSKNSLYLQMNSLTACDTAVYYCVRHGNFGNSYVSWFAYWGQGTLVTVSSGGGGSQSALTQPASVSGSPGQSITISCTGTSSDVGGYNYVSWYQQHPGKAPKLMIYDVTYRPSGVSNRFSGSKSGNTASLTISGLQAEDEADYYCSSYTVATTLVVFGGGTKLTVLASTKGPSVFPLAPSSKSTSGGTAALGCLVKDYFPEPVTVSWNSGALTSGVHTFPAVLQSSGLYSLSSVVTVPSSSLGTQTYICNVNHKPSNTKVDKKVEPKSCHHHHHH
chain 2: EVQLVESGGGLVQPGGSLRLSCAASGFTFSAYAMHWVRQAPGKGLEWVAVISYEGYNAYYADSVKGRFTISRDNSKNTLYLQMNSLTACDTAVYYCAKEGDYSRWAYDYWGRGTLVTVSSGGGGSDIQMTQSPSSLSASVGDRVTITCRSSTGAVTTSNYANWVQQKPGKAPKGLIGGTNKRAPGVPSRFSGSLIGDKATLTISSLQPEDFATYYCALWYSNLWVFGQGTKVEIKRTVAAPSVFIFPPSDEQLKSGTASVVCLLNNFYPREAKVQWKVDNALQSGNSQESVTEQDSKDSTYSLSSTLTLSKADYEKHKVYACEVTHQGLSSPVTKSFNRGEC
notes: Dually stabilized diabody: inter-chain disulfide link and CH1/CL pairing; Anti-CD3 arm is humanized SP34 (hSP34k2); also called SYLY×CD3 DSDbody; SYLY DSDbody
For the molecule B1, the Kd in assay [1] is 0.19 nM; with human CD3 epsilon [3], 25 nM; in [4], 18 nM; in the assay with human CD3 epsilon [5] it was 20 nM; in assay [6], 2.4 nM; in the assay with human ALPPL2-Fc [7], roughly 0.2 nM. Moreover, the Kd in assay [8] stood at 4.35 nM; with human ALPPL2-Fc [9], 0.2 nM. Also, the “EC50 of killing of SKOV3 cells with human PBMC (E:T 10:1, 96h, Calcein AM)” value in assay [2] is 0.0003 nM. For the same molecule, in the assay with ALPP on HEK293 cells, the “EC50 of killing of HEK293-ALPP cells with human PBMC (E:T 10:1, 72h, Calcein AM)” value is 0.0085 nM. Also, the binding result in the assay with human ALPI-Fc is recorded as “no binding (tested: 100 nM)”.

B2: FYIA_germ_SY Fab (Fab, part only; not given: light variable domain, not tied by name, V domains shown, part only)
VH: EVQLVESGGGLVQPGGSLRLSCAASGFTFSAYAMHWVRQAPGKGLEWVAVISYEGYNAYYADSVKGRFTISRDNSKNTLYLQMNSLRAEDTAVYYCAKEGDYSRWAYDLWGRGTLVTVSS
For the molecule B2, the Kd in [10] stood at 1.27 nM.

B3: FYIA_germ Fab (Fab, V domains shown)
VH: B2 VH with A31S, E54D, Y56S, A58K, Y102S, A106S
VL: QSALTQPASVSGSPGQSITISCTGTSSDVGGYNYVSWYQQHPGKAPKLMIYDVTNRPSGVSNRFSGSKSGNTASLTISGLQAEDEADYYCSSYTIASTLVVFGGGTKLTVL
notes: Tested as monovalent Fab
As for B3, the results for the Kd (in assay [11]; with human ALPPL2-Fc [12]) were 69.4 nM and 13 nM, respectively. For the same molecule, the binding result in [13] is given as “no binding (tested: 10000 nM)”.

B4: FYIA_germopt Fab (Fab, V domains shown)
VH: B2 VH with L109Y
VL: B3 VL with R56Y, I95V, S97T
notes: Tested as monovalent Fab; also called SYLY
In the case of B4, the Kd in [11] was 0.967 nM; with human ALPPL2-Fc [12] it was 0.19 nM. Also, the binding result in assay [13] is “no binding (tested: 10000 nM)”. For the same molecule, the “fold improvement over the parental FYIA” value in assay [14] was greater than 30 fold.
